Biological target: 2-cysteine (Cys) peroxiredoxin A, recombinant mature wild type, tag-free (Arabidopsis)
Experiment: LC/MS of the intact protein (deconvoluted masses); oxidised 2CPA with 0 to 19.2 mM GSH and NEM, 50 mM Tris pH 7.5, 25 °C; C4 column, acetonitrile gradient with 0.1% HCOOH; shows disulfide-linked dimers

In the case of “2-cysteine (Cys) peroxiredoxin A, recombinant mature wild type, tag-free (enzyme)”, the stoichiometry N is reported as 2.

Reference: article PMC10648297
